Experimental data published in paper PMC3753642.

Tests used:
Assay in all cases: EMSA
Conditions in all cases: TNK buffer (composition and pH not in material), 30 C
[1] = molecular target: Hfq WT (Escherichia coli) (UniProt P0A6X3)
[2] = molecular target: Hfq:R16A R16A (Escherichia coli) (UniProt P0A6X3)
[3] = molecular target: Hfq TM R16A;R17A;R19D (Escherichia coli) (UniProt P0A6X3)

With ArcZ56 sRNA the Kd [1] was 49 nM and the Kd [2] was 190 nM.

DsrA sRNA showed a Kd [3] of 300 nM, a Kd [1] of 132 nM and a Kd [2] of 373 nM.

Work on RprA sRNA yielded a Kd [1] of 187 nM and a Kd [2] of 623 nM.

rpoS323 mRNA leader gave a Kd [1] of 144 nM and a Kd [2] of 196 nM.
